Data reported in US20090068110A1, “ANTIBODIES TO INSULIN-LIKE GROWTH FACTOR RECEPTOR” (Genentech, Inc., priority 2006, published 2009).
Numbering of substitutions follows the chain as printed. “Also recorded” adds a separate entry of the source. Where two headings read alike, the source gives them in different places.

Legend:
[1] = target: human IGF-1R-ECD (secreted recombinant extracellular domain, amino acids 1-902, tagged with 10 or 12 histidine residues at the carboxyl terminus) (human) (UniProt P08069); assay: BIACORE surface plasmon resonance: IGF-1R immobilized on CM5 chip (about 500 RU), Fab injected 500-3.1 nM, 25 C, 1:1 Langmuir model
human IGF-1R-ECD = target: T1, human IGF-1R-ECD (Homo sapiens, UniProt P08069); assay: phage-competition ELISA (phage IC50); type: binding
T1 construct: containing the extracellular domain (ECD, amino acids 1-902) tagged with 10 or 12 histidine residues at the carboxyl terminus; His10 or His12 (C); made in house; host or cells: CHO cells
Method: MAXISORP™ microtiter plates were coated with human IGF-1R-ECD at 5 μg/ml in PBS overnight and then blocked with CASEIN BLOCKER™ reagent (Pierce Biotechnology, Inc.). Phage from culture supernatants were incubated with serially diluted IGF-1R-ECD in PBS with 0.05% TWEEN 20™ surfactant (PBST) containing 1% bovine serum albumin (BSA) in a tissue-culture microtiter plate for 1 hour, after which 80 μl of the mixture was transferred to the target-coated wells for 15 minutes to capture unbound phage. The plate was washed with PBST, and HRP-conjugated anti-M13 (Amersham Pharmacia Biotech) was added (1:5000 in PBST containing 1% BSA) for 40 minutes. The plate was washed with PBST and developed by adding tetramethylbenzidine (TMB) substrate (Kirkegaard and Perry Laboratories, Gaithersburg, Md.). The absorbance at 450 nm was plotted as a function of target concentration in solution to determine an IC50. […] For the humanized hybridoma-derived clones, 2B4, 9F2, and 10H5, phage-Fab was used.
This assay was conducted as described in Section 1-II-A-(4) of this Example. For the YW95-phage-derived clones from the VH/VL phage library, phage-Fab-Zip was used.

cynomolgus-monkey IGF-1R = assay: BIACORE surface-plasmon resonance, cynomolgus-monkey IGF-1R; type: binding; details: IgG, FIG. 15
Method: Binding affinities of selected antibodies to IGF-1R were determined by surface plasmon resonance measurements on a BIACORE™ 3000 instrument (BIAcore, Inc.). Human, murine, or cynomolgus-monkey IGF-1R was immobilized at a density of about 500 RU on the flow cells of a PIONEER™ CM5 sensor chip. Immobilization was achieved by random coupling through amino groups using a protocol provided by the manufacturer. Sensorgrams were recorded for binding of anti-IGF-1R Fab or IgG to these surfaces by injection of a series of solutions ranging from 500 nM to 3.1 nM and 250 nM to 0.78 nM in two-fold increments, respectively. The signal from the reference cell was subtracted from the observed sensorgram. Kinetic constants were calculated by non-linear regression analysis of the data according to a 1:1 Languir binding model using software supplied by the manufacturer.

MCF7 cells = assay: cell viability assay ([…]-GLO), MCF7; type: cell-based, human
Method: The different cell lines were cultured in their respective culture media at 37° C. in a humidified atmosphere of 5% CO2. Subsequently, cells were detached from tissue-culture flasks using the cell-dissociation solution, TRIPLE SELECT™ solution (InVitrogen, Carlsbad, Calif., USA), and centrifuged at 1000 rpm for five minutes. Detached cells were washed once with PBS, counted, and seeded in 96-well plates (Corning, N.Y., USA) at 2000 cells per well in 100 μL of culture media. After an overnight incubation at 37° C. in a humidified atmosphere of 5% CO2, the cell-culture medium was replaced with 50 μL of starvation medium consisting of serum-free RPMI 1640™ medium without phenol red. The cells were then starved for five hours in the incubator before addition of 25 μL of each anti-IGF-1R monoclonal antibody at various dilutions in serum-free RPMI 1640™ phenol red-free media. Later, 25 μL of phenol red-free RPMI 1640™ media supplemented with 4% of fetal bovine serum (FBS) (Sigma) with or without 4 ng/ml of human recombinant IGF-I were added on top of the 50 μL of antibody. The cells were then placed at 37° C. with 5% CO2 for 5 to 6 days. At the end of the assay, cell viability was measured using the […]-GLO® kit according to the manufacturer's instructions (Promega, Madison, Wis., USA).
For the cell viability assay, MCF7 cells were seeded onto 96-well plates at 2000 cells/well and incubated overnight at 37° C. in a humidified atmosphere of 5% CO2/95% air in RPMI 1640™ medium supplemented with 10% FBS (Sigma, St. Louis, Mo.) and 1% GLUTAMAX™ reagent (Promega, Madison, Wis.). The next day cells were starved in serum-free RPMI 1640™ medium (phenol red-free) for five hours followed by addition of serially diluted human chimeric versions of 9F2, 2B4, and 10H5, as well as h10H5.vX, for one hour. Subsequently, phenol red-free PRMI 1640™ medium supplemented with FBS or IGF-I was added to reach a final concentration of 1% FBS and 1 ng/mL IGF-I. Cells were then incubated with continuous IGF-1R antibody exposure. After five days, the cell viability was then determined using a […]-GLO™ kit (Promega, Madison, Wis.) according to the manufacturer's instructions.

IGF-1R = IGF-1R (Homo sapiens, UniProt P08069); assay: antibody-induced IGF-1R down-regulation in MCF7 cells, Western blotting; type: cell-based; design: IGF-1R is normally localized at the plasma membrane of MCF7 cells; endogenous in cells; host or cells: MCF7; details: 10 μg/ml, 1, 4, 8 or 24 hours, 10% serum
Method: Further exploration of the mechanism of action of anti-IGF-1R antibodies was carried out by testing the ability of the antibodies of the invention, particularly human chimeric antibodies of 2B4, 9F2, 10H5, as well as human phage antibody YW95.6, to induce IGF-1R down-regulation. MCF7 cells were treated with various antibodies (10 μg/ml) for 1, 4, 8, or 24 hours in the presence of 10% serum-containing medium. The cell lysates were harvested, separated by SDS-PAGE, and analyzed for IGF-1R levels by Western blotting using an anti-IGF-1R beta-chain antibody (Cell Signaling Technology, Inc.; Beverly, Mass., USA) or anti-beta-actin antibody.
In a separate experiment, MCF7 cells were treated with serially diluted h10H5, and the cell lysates were analyzed for IGF-1R and IR levels using anti-IGF-1R and anti-IR β-chain antibodies at 1, 2, 4, and 8 hours post-continuous treatment.

[2] = YW95 phage-derived clones displayed as bivalent Fab-Zip on phage, read-out: phage IC50

B1: murine 2B4 Fab (Fab, V domains shown)
VH: QIQLVQSGPELKKPGETVKISCKASGYNLANYGLNWVKQAPGEGLKWMGWINTNTGAPTYAEEFKGRFVFFLETSASTAYLQINNLSDEDTATYFCARSIYYYASRYFNVWGAGTS
VL: DIQMTQTTSSLSASLGDKVTISCRASQDISNYLNWYQQKPDGTIKLLIYYTSRLHSGIPSRFSGSGSGTDYSLTISNLEQEDIATYFCQQGNTLPWTFGGGTKVEIKR
- Kd [1]: 24 nM

B2: murine 10H5 Fab (Fab, V domains shown)
VH: QVQLQQPGAELVKPGASVTLSCKASGYTFTRFWIHWVKQRPGQGLEWIGEINPSNGRTNYNENFKNKATLTVDTSSSTAYMQLSSLTSEVSVVYYCARGGRLDQWGQGTT
VL: DIVMTQSQKFMSTSLGDRVSVTCKASQNVGSNVAWYQQKPGQSPEALIYSASYRYSGVPDRFTGSGSGTDFTLTISNVQSEDLAEYFCHQYNNYPYTFGGGTKVEIKR
- Kd [1]: 22 nM

B3: h2B4.vX: humanized anti-IGF-1R antibody, direct HVR graft of murine 2B4; VL SEQ ID NO:44, VH SEQ ID NO:47 (antibody, V domains shown)
VH: EVQLVESGGGLVQPGGSLRLSCAASGYNLANYGLNWVRQAPGKGLEWVGWINTNTGAPTYAEEFKGRFTISADTSKNTAYLQMNSLRAEDTAVYYCARSIYYYASRYFNVWGQGTL
VL: DIQMTQSPSSLSASVGDRVTITCRASQDISNYLNWYQQKPGKAPKLLIYYTSRLHSGVPSRFSGSGSGTDFTLTISSLQPEDFATYYCQQGNTLPWTFGQGTKVEIKR
modifications: sequence is synthesized
- binding affinity (phage IC50) against IGF-1R-ECD, in words (human IGF-1R-ECD; monovalent phage-Fab, after HVR grafting): micromolar binding affinity; also recorded: decreased into the micromolar range

B4: h9F2.vX: humanized anti-IGF-1R antibody, direct HVR graft of murine 9F2; VL SEQ ID NO:49, VH SEQ ID NO:51 (antibody, V domains shown)
VH: B3 VH with N28T, L34M, A57K, A61S, E62D, A104G
VL: B3 VL with S30N, N34T
modifications: sequence is synthesized
- IC50 (human IGF-1R-ECD; humanized hybridoma-derived clones displayed on phage as monovalent Fab, read-out: binding affinity (phage IC50) against IGF-1R-ECD): 60 nM
- binding to human versus cyno IGF-1R (cynomolgus-monkey IGF-1R): comparable for human and cyno IGF-1R

B5: YW95.3: anti-IGF-1R phage-display clone from VH/VL library; VL SEQ ID NO:66, VH SEQ ID NO:70 (antibody, V domains shown)
VH: EVQLVESGGGLVQPGGSLRLSCAASGFTFSSYAMSWVRQAPGKGLEWVSRISPSGGSTYYADSVKGRFTISADTSKNTAYLQMNSLRAEDTAVYYCAREHYFHWGGMDVWGQGTL
VL: DIQMTQSPSSLSASVGDRVTITCRASQSISSYLAWYQQKPGKAPKLLIYGASSRASGVPSRFSGSGSGTDFTLTISSLQPEDFATYYCQQYYSSPLTFGQGTKVEIKR
modifications: sequence is synthesized
- IC50 (human IGF-1R-ECD; [2]): 20 nM

B6: YW95.6: human phage antibody clone against IGF-1R; VL SEQ ID NO:67, VH SEQ ID NO:71 (antibody, V domains shown)
VH: B5 VH with H100E, F102Y, H103Y, G106A
VL: B5 VL
modifications: sequence is synthesized
- effect on the MCF7 cell viability compared to the media control (MCF7 cells; initial screen, 0.12 to 10 μg/ml): no effect
- IC50 (human IGF-1R-ECD; [2]): 20 nM
- IGF-1R down-regulation (IGF-1R): rapidly down-regulated and reached maximal reduction by eight hours

B7: YW95.81: anti-IGF-1R phage-display clone from VH/VL library; VL SEQ ID NO:68, VH SEQ ID NO:72 (antibody, V domains shown)
VH: EVQLVESGGGLVQPGGSLRLSCAASGFSFSSQGISWVRQAPGKGLEWVSTISYDGSTYYADSVKGRFTISADTSKNTAYLQMNSLRAEDTAVYYCARQFMLWGKQFGMDVWGQGTL
VL: B5 VL with Y91R, Y92F, S94V, L96F
modifications: sequence is synthesized
- IC50 (human IGF-1R-ECD; [2]): 20 nM

B8: YW95.87: anti-IGF-1R phage-display clone from VH/VL library; VL SEQ ID NO:69, VH SEQ ID NO:73 (antibody, V domains shown)
VH: B5 VH with H100S, F102Y, H103E, G106A
VL: B5 VL
modifications: sequence is synthesized
- IC50 (human IGF-1R-ECD; [2]): 20 nM

B9: chimeric 2B4: human chimeric version of murine 2B4 (antibody, V domains shown)
VH: B1 VH
VL: B1 VL
- comparison of inhibitory effect on MCF7 proliferation / viability (MCF7 cells; in the presence of IGF-I): equivalent at decreasing the MCF7 cell viability
- IGF-1R down-regulation (IGF-1R): rapidly down-regulated and reached maximal reduction by eight hours
